PMC3375153, “The Role of Arg13 in Protein Phosphatase M tPphA from Thermosynechococcus elongatus” (Enzyme Research, 2012)

B1: tPphA (Thermosynechococcus vestitus BP-1; R13N) (protein)
chain: MDVAGLTDCGLINKSNQDAFYIDEKHQRFFIVADGMGGHAGGEEASRLAVDHIRQYLETHLEDLQHDPVTLLRQAFLAANHAIVEQQRQNSARADMGTTAVVILLDEKGDRAWCAHVGDSRIYRWRKDQLQQITSDHTWIAQAVQLGSLTIEQARQHPWRHVLSQCLGREDLSQIDIQPIDLEPGDRLLLCSDGLTEELTDDVISIYLSEPNVQKAAAALVDAAKTHGGRDNVTVVVISV
B2: tPphA (Thermosynechococcus vestitus BP-1; R13S) (protein)
chain: MDVAGLTDCGLISKSNQDAFYIDEKHQRFFIVADGMGGHAGGEEASRLAVDHIRQYLETHLEDLQHDPVTLLRQAFLAANHAIVEQQRQNSARADMGTTAVVILLDEKGDRAWCAHVGDSRIYRWRKDQLQQITSDHTWIAQAVQLGSLTIEQARQHPWRHVLSQCLGREDLSQIDIQPIDLEPGDRLLLCSDGLTEELTDDVISIYLSEPNVQKAAAALVDAAKTHGGRDNVTVVVISV
B3: tPphA (Thermosynechococcus vestitus BP-1) (protein)
chain: MDVAGLTDCGLIRKSNQDAFYIDEKHQRFFIVADGMGGHAGGEEASRLAVDHIRQYLETHLEDLQHDPVTLLRQAFLAANHAIVEQQRQNSARADMGTTAVVILLDEKGDRAWCAHVGDSRIYRWRKDQLQQITSDHTWIAQAVQLGSLTIEQARQHPWRHVLSQCLGREDLSQIDIQPIDLEPGDRLLLCSDGLTEELTDDVISIYLSEPNVQKAAAALVDAAKTHGGRDNVTVVVISV
B4: tPphA (Thermosynechococcus vestitus BP-1; R13A) (protein)
chain: MDVAGLTDCGLIAKSNQDAFYIDEKHQRFFIVADGMGGHAGGEEASRLAVDHIRQYLETHLEDLQHDPVTLLRQAFLAANHAIVEQQRQNSARADMGTTAVVILLDEKGDRAWCAHVGDSRIYRWRKDQLQQITSDHTWIAQAVQLGSLTIEQARQHPWRHVLSQCLGREDLSQIDIQPIDLEPGDRLLLCSDGLTEELTDDVISIYLSEPNVQKAAAALVDAAKTHGGRDNVTVVVISV
B5: tPphA (Thermosynechococcus vestitus BP-1; R13C) (protein)
chain: MDVAGLTDCGLICKSNQDAFYIDEKHQRFFIVADGMGGHAGGEEASRLAVDHIRQYLETHLEDLQHDPVTLLRQAFLAANHAIVEQQRQNSARADMGTTAVVILLDEKGDRAWCAHVGDSRIYRWRKDQLQQITSDHTWIAQAVQLGSLTIEQARQHPWRHVLSQCLGREDLSQIDIQPIDLEPGDRLLLCSDGLTEELTDDVISIYLSEPNVQKAAAALVDAAKTHGGRDNVTVVVISV
B6: tPphA (Thermosynechococcus vestitus BP-1; R13Q) (protein)
chain: MDVAGLTDCGLIQKSNQDAFYIDEKHQRFFIVADGMGGHAGGEEASRLAVDHIRQYLETHLEDLQHDPVTLLRQAFLAANHAIVEQQRQNSARADMGTTAVVILLDEKGDRAWCAHVGDSRIYRWRKDQLQQITSDHTWIAQAVQLGSLTIEQARQHPWRHVLSQCLGREDLSQIDIQPIDLEPGDRLLLCSDGLTEELTDDVISIYLSEPNVQKAAAALVDAAKTHGGRDNVTVVVISV
B7: tPphA (Thermosynechococcus vestitus BP-1; R13K) (protein)
chain: MDVAGLTDCGLIKKSNQDAFYIDEKHQRFFIVADGMGGHAGGEEASRLAVDHIRQYLETHLEDLQHDPVTLLRQAFLAANHAIVEQQRQNSARADMGTTAVVILLDEKGDRAWCAHVGDSRIYRWRKDQLQQITSDHTWIAQAVQLGSLTIEQARQHPWRHVLSQCLGREDLSQIDIQPIDLEPGDRLLLCSDGLTEELTDDVISIYLSEPNVQKAAAALVDAAKTHGGRDNVTVVVISV
B8: tPphA (Thermosynechococcus vestitus BP-1; R13Y) (protein)
chain: MDVAGLTDCGLIYKSNQDAFYIDEKHQRFFIVADGMGGHAGGEEASRLAVDHIRQYLETHLEDLQHDPVTLLRQAFLAANHAIVEQQRQNSARADMGTTAVVILLDEKGDRAWCAHVGDSRIYRWRKDQLQQITSDHTWIAQAVQLGSLTIEQARQHPWRHVLSQCLGREDLSQIDIQPIDLEPGDRLLLCSDGLTEELTDDVISIYLSEPNVQKAAAALVDAAKTHGGRDNVTVVVISV
B9: tPphA (Thermosynechococcus vestitus BP-1; R13H) (protein)
chain: MDVAGLTDCGLIHKSNQDAFYIDEKHQRFFIVADGMGGHAGGEEASRLAVDHIRQYLETHLEDLQHDPVTLLRQAFLAANHAIVEQQRQNSARADMGTTAVVILLDEKGDRAWCAHVGDSRIYRWRKDQLQQITSDHTWIAQAVQLGSLTIEQARQHPWRHVLSQCLGREDLSQIDIQPIDLEPGDRLLLCSDGLTEELTDDVISIYLSEPNVQKAAAALVDAAKTHGGRDNVTVVVISV
B10: tPphA (Thermosynechococcus vestitus BP-1; R13G) (protein)
chain: MDVAGLTDCGLIGKSNQDAFYIDEKHQRFFIVADGMGGHAGGEEASRLAVDHIRQYLETHLEDLQHDPVTLLRQAFLAANHAIVEQQRQNSARADMGTTAVVILLDEKGDRAWCAHVGDSRIYRWRKDQLQQITSDHTWIAQAVQLGSLTIEQARQHPWRHVLSQCLGREDLSQIDIQPIDLEPGDRLLLCSDGLTEELTDDVISIYLSEPNVQKAAAALVDAAKTHGGRDNVTVVVISV
B11: tPphA (Thermosynechococcus vestitus BP-1; R13P) (protein)
chain: MDVAGLTDCGLIPKSNQDAFYIDEKHQRFFIVADGMGGHAGGEEASRLAVDHIRQYLETHLEDLQHDPVTLLRQAFLAANHAIVEQQRQNSARADMGTTAVVILLDEKGDRAWCAHVGDSRIYRWRKDQLQQITSDHTWIAQAVQLGSLTIEQARQHPWRHVLSQCLGREDLSQIDIQPIDLEPGDRLLLCSDGLTEELTDDVISIYLSEPNVQKAAAALVDAAKTHGGRDNVTVVVISV

Substrate: O=[N+]([O-])c1ccc(OP(=O)(O)O)cc1
Assay: chromogenic phosphatase assay, A400
Assay type: biochemical, Thermosynechococcus vestitus
Conditions: 50 mM Tris-HCl pH 8.3, 50 mM NaCl, 1 mM DTT, 2 mM MnCl2, 30 °C, pNPP 0.1-10 mM
Source text: chromogenic phosphatase assay, A400 on tPphA

| Protein | Km [mM] | kcat [s⁻¹] | kcat/Km [M⁻¹ s⁻¹] |
| --- | --- | --- | --- |
| B1 | 4.73 ± 0.53 | 0.81 ± 0.04 | 171 ± 8 |
| B2 | 3.85 ± 0.32 | 1.06 ± 0.04 | 275 ± 10 |
| B3 | 1.06 ± 0.05 | 2.25 ± 0.1 | 2120 ± 94 |
| B4 | 5.11 ± 0.23 | 1.56 ± 0.03 | 305 ± 6 |
| B5 | 4.27 ± 0.39 | 0.79 ± 0.01 | 185 ± 2 |
| B6 | 4.06 ± 0.21 | 0.5 ± 0.01 | 123 ± 2 |
| B7 | 1.39 ± 0.10 | 1.22 ± 0.03 | 878 ± 21 |
| B8 | 4.31 ± 0.28 | 0.42 ± 0.01 | 97 ± 2 |
| B9 | 3.30 ± 0.17 | 0.64 ± 0.01 | 194 ± 3 |
| B10 | 3.58 ± 0.22 | 1.17 ± 0.03 | 327 ± 8 |
| B11 | 4.77 ± 0.17 | 1.01 ± 0.02 | 212 ± 4 |
